From US20250011406A1

What was measured:
[1] = target: PfCSPm (PfCSP_SAmut_C5S), stabilized mutant form of PfCSP (Plasmodium falciparum) (UniProt Q7K740); experiment: ITC, two-site model [lower table]
[2] = target: PfCSPm (PfCSP_SAmut_C5S), stabilized mutant form of PfCSP (Plasmodium falciparum) (UniProt Q7K740); experiment: ITC
[3] = target: PfCSPm (PfCSP_SAmut_C5S), stabilized mutant form of PfCSP (Plasmodium falciparum) (UniProt Q7K740); experiment: ITC, two-site model
[4] = target: PfCSPm (PfCSP_SAmut_C5S), stabilized mutant form of PfCSP (Plasmodium falciparum) (UniProt Q7K740); experiment: ITC, antibody titrated into PfCSPm, pH 7.4, 25 C, two sets of sites; first (junctional) site
[5] = target: PfCSPm (PfCSP_SAmut_C5S), stabilized mutant form of PfCSP (Plasmodium falciparum) (UniProt Q7K740); experiment: ITC, antibody titrated into PfCSPm; second site
[6] = target: PfCSPm (PfCSP_SAmut_C5S), stabilized mutant form of PfCSP (Plasmodium falciparum) (UniProt Q7K740); experiment: ITC, antibody titrated into PfCSPm; first site
[7] = target: PfCSPm (PfCSP_SAmut_C5S), stabilized mutant form of PfCSP (Plasmodium falciparum) (UniProt Q7K740); experiment: ITC, antibody titrated into PfCSPm, pH 7.4, 25 C, two sets of sites; second site

Substance: mature CIS43 with L98I in the heavy chain (antibody)
- -TΔS1 [1]: 8.8 kcal/mol
- -TΔS2 [1]: -0.9 kcal/mol
- ΔG1 [1]: -10.8 kcal/mol
- ΔG2 [1]: -10.2 kcal/mol
- ΔH1 [1]: -19.6 kcal/mol
- ΔH2 [1]: -9.3 kcal/mol
- Kd [2]: 11 nM
- change in ΔG [2]: 0.2 kcal/mol
- fold affinity increase over mature CIS43 [2]: 1.6 fold

Substance: mature CIS43 antibody (IgG)
- -TΔS1 [3]: 13.4 kcal/mol
- -TΔS2 [3]: 0.9 kcal/mol
- ΔG1 [3]: -10.6 kcal/mol
- ΔG2 [3]: -9.8 kcal/mol
- ΔH1 [3]: -24 kcal/mol
- ΔH2 [3]: -10.7 kcal/mol
- Kd [4]: 18 nM
- stoichiometry [5]: 5.8
- stoichiometry [6]: 2.4
- Kd [7]: 63 nM
